{"source": "paper PMC10011430", "biological_target": "DENV NS2B3 protease, active site mutant NS2B3^S135A (coexpressed NS2B hydrophilic core and NS3 prote (Dengue virus (serotype not given)))", "experiment": "native gel or EMSA", "data": [{"substance": "cGAS cleavage product C-terminal (CP-C, 125-522) (from UniProt Q8N884 125-522) (domain or fragment)", "values": [{"measurement": "Kd", "result": 39.2, "unit": "µM"}]}, {"substance": "full-length human cyclic GMP-AMP synthase (cGAS) (from UniProt Q8N884 1-522) (natural protein)", "values": [{"measurement": "Kd", "result": 21.6, "unit": "µM"}]}]}
